Laboratory results as given in patent US20260098102A1 (NATIONAL UNIVERSITY CORPORATION KOBE UNIVERSITY, published 2026).
Substitutions are numbered along the chain they refer to.

B1: human chimeric anti-SIRPA antibody cD13 (antibody, human IgG4 S228P, kappa, F234A L235A, V domains shown)
VH: EVQLVESGGGLVQPGRSLKLSCLASGFTFSDYGMIWVRQAPGKGLEWVASISSSSSYIYYADTVKGRFTISRENAKNTLFLHMTSLRSEDTALYYCARRYYGFNYPFDYWGQGVMVTVSS
VL: DTVLTQSPALAVSLGQRVTISCGASKSVRTYMHWYQQKSGQQPKLLIYSASNLEAGVPSRFSGSGSGTDFTLTIDPVEADDIANYYCQQSNEPPYTFGAGTKLELKR
notes: Human IgG4proFALA heavy chain, human kappa light chain; also called cD13 (IgG4pf); human chimeric antibody D13
B2: humanized anti-SIRPA antibody hD13_H1L3 (antibody, human IgG4 S228P, kappa, F234A L235A, V domains shown)
VH: QVQLVESGGGVVQPGRSLRLSCAASGFTFSDYGMIWVRQAPGKGLEWVASISSSSSYIYYADSVKGRFTISRDNSKNRLYLQMNSLRAEDTAVYYCARRYYGFNYPFDYWGQGTMVTVSS
VL: DTQLTQSPSSLSASVGQRVTITCGASKSVRTYMHWYQQKPGKQPKLLIYSASNLEAGVPSRFSGSGSGTDFTLTISSLQPEDFATYYCQQSNEPPYTFGQGTKLEIKR
notes: hH1 heavy chain (IgG4proFALA) and hL3 kappa light chain; also called hD13_HIL3; HIL3 antibody
B3: humanized anti-SIRPA antibody hD13_H1L4 (antibody, human IgG4 S228P, kappa, F234A L235A, V domains shown)
VH: B2 VH
VL: DTVLTQSPDSLAVSLGQRATINCGASKSVRTYMHWYQQKPGQQPKLLIYSASNLEAGVPSRFSGSGSGTDFTLTISSLQAEDVAVYYCQQSNEPPYTFGQGTKVEIKR
notes: hH1 heavy chain (IgG4proFALA) and hL4 kappa light chain; also called hD13_HIL4; hD13_HIL4h
B4: humanized anti-SIRPA antibody hD13_H2L2 (antibody, human IgG4 S228P, kappa, F234A L235A, V domains shown)
VH: B2 VH with Q1E, R78T
VL: B2 VL with D1A, T2I, Q43A
notes: hH2 heavy chain (IgG4proFALA) and hL2 kappa light chain; also called H2L2 antibody
B5: humanized anti-SIRPA antibody hD13_H2L3 (antibody, human IgG4 S228P, kappa, F234A L235A, V domains shown)
VH: B2 VH with Q1E, R78T
VL: B2 VL
notes: hH2 heavy chain (IgG4proFALA) and hL3 kappa light chain; also called H2L3 antibody

Legend:
monkey SIRPA protein [1] = target: T1, monkey SIRPA protein (cynomolgus monkey, UniProt P78324 31-504 (human entry)); experiment: blocking cell-based ELISA: peroxidase-labeled CD47-Fc (1 µg/mL) on 293α cells expressing monkey SIRPA; y axis = CD47-Fc signal relative to no antibody (100)
T1 construct: Expressed on 293α cells from pcDNA3.2 V5-DEST or pFLAG V5-DEST vectors; also called cynomolgus monkey SIRPA; cSIRPA
T1 chain: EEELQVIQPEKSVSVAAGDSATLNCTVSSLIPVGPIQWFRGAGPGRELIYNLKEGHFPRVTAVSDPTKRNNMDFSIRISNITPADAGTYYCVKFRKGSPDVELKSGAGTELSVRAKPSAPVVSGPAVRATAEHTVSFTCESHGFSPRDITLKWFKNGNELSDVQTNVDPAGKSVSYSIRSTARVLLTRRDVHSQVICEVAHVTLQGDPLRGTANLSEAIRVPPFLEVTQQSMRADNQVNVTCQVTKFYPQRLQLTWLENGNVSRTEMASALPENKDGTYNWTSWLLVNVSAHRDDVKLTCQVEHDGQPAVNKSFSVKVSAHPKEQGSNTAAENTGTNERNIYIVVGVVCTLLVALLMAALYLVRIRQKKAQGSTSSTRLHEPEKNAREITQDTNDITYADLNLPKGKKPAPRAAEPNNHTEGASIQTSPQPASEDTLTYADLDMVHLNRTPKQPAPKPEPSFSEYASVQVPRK
Experimental: After the culture supernatant of human SIRPA or monkey SIRPA expression vector-introduced 293α cells prepared in Example 8)-1 was removed, 50 μL per well of hD13_HIL3, hD13_HIL4h, hD13_H2L2, or hD13_H2L3 diluted with 5% FBS-containing PBS to a final concentration of 0 to 10,000 ng/ml was added to each of pcDNA3.2 V5-DEST-SIRPA_V1, pcDNA3.2 V5-DEST-SIRPA_V2, pcDNA3.2 V5-DEST-monkey SIRPA, and pcDNA3.2 V5-DEST-introduced 293α cells, immediately followed by addition of peroxidase-labeled CD47-Fc prepared with 5% FBS-containing PBS at 1 μg/mL, and the mixture was allowed to stand at 4° C. for one hour. Thereafter, the SIRPA-CD47 binding inhibitory activity was evaluated in the same manner as in 1)-6-3.

monkey SIRPA protein [2] = target: T1, monkey SIRPA protein; experiment: cell-based ELISA on 293α cells expressing FLAG-tagged monkey SIRPA; Abs 490 normalized to FLAG tag [iii]
Experimental: (§1) The 293a cells, described in Example 1)-6, were prepared at 5× 10⁵ cells/mL in a 10% FBS-containing DMEM medium. pFLAG V5-DEST-SIRPA_V1-V10, pFLAG V5-DEST-monkey SIRPA, pFLAG V5-DEST-mouse SIRPA, or pFLAG V5-DEST was introduced into the cells using Lipofectamine LTX (Invitrogen), and 100 μL each was aliquoted to a 96-well plate (Corning Incorporated) and cultured overnight in a 10% FBS-containing DMEM medium at 37° C. under a 5% CO₂ condition. The obtained introduced cells were used for cell-based ELISA in a state that they adhered. After the culture supernatant was removed, 50 μL per well of hD13_HIL3, hD13_HIL4h, hD13_H2L2, hD13_H2L3, or cD13 prepared in Examples 6 and 7 or a control antibody was added to each of various SIRPA genes-introduced cells at a final concentration of 0 to 10,000 ng/ml, and the mixture was allowed to stand at 4° C. for one hour. Thereafter, binding to human SIRPA was evaluated in the same manner as in Example 5-1.

human SIRPA_V2 protein = target: T2, human SIRPA_V2 protein (human, UniProt P78324 31-504); experiment: cell-based ELISA on 293α cells expressing FLAG-tagged SIRPA_V2; Abs 490 normalized to FLAG tag [ii]
T2 construct: Expressed on 293α cells from pcDNA3.2 V5-DEST or pFLAG V5-DEST (FLAG-tagged) vectors; also called human SIRPA Variant 2; ECD variant (full-length, amino acids 1 to 504)
Experimental: as §1

mouse SIRPA_NOD = target: T3, mouse SIRPA_NOD (mouse (NOD), UniProt P97797 32-513); experiment: cell-based ELISA on 293α cells expressing FLAG-tagged mouse SIRPA (NOD); Abs 490 normalized to FLAG tag [i]
T3 construct: FLAG-tagged (pFLAG V5-DEST), on 293α cells; also called NOD SCID
T3 chain: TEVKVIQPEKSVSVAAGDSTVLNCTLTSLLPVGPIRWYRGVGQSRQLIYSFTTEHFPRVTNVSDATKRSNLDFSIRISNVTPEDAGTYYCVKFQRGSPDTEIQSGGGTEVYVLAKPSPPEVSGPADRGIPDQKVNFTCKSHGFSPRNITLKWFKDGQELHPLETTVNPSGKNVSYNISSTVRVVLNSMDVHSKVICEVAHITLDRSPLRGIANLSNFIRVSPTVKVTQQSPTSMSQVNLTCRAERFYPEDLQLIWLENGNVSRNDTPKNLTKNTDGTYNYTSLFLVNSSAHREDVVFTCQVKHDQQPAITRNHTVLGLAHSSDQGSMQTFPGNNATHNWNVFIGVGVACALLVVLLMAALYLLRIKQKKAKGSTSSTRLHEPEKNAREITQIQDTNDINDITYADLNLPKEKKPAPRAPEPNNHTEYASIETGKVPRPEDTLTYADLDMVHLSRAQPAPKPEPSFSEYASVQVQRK
Experimental: as §1

Binder	IC50 (read off the curve) (monkey SIRPA protein [1])	EC50 (read off the curve) (monkey SIRPA protein [2])	EC50 (read off the curve) (human SIRPA_V2 protein)	binding result (mouse SIRPA_NOD)
B1	~0.9 µg/mL	~0.03 µg/mL	~0.03 µg/mL	no binding (tested: 10000 ng/mL)
B2	~0.6 µg/mL	~0.03 µg/mL	~0.03 µg/mL	no binding (tested: 10000 ng/mL)
B3	~1 µg/mL	~0.03 µg/mL	~0.03 µg/mL	no binding (tested: 10000 ng/mL)
B4	~0.9 µg/mL	~0.03 µg/mL	~0.03 µg/mL	no binding (tested: 10000 ng/mL)
B5	~0.8 µg/mL	~0.03 µg/mL	~0.03 µg/mL	no binding (tested: 10000 ng/mL)
